Test results taken from patent publication US20060222643A1 (Chugai, published 2006).
No end group written: not given here.

Columns and labels:
[1] = biological target: T1, human Mpl-IgG Fc fusion protein (human, UniProt P40238 26-491); test: SPR, Biacore 2000, human Mpl-IgG Fc immobilized on CM5 by amine coupling, 1.25 to 20 µg/mL VB22B IgG injected
T1 construct: Expressed in CHO-DG44 with a 19-residue signal peptide from a human IgG H chain variable region (left out); also called hMpl-Fc; hMPL-Fc; not shown: Fc region of human IgG-gamma1 (a region downstream of Asp 216)
T1 sequence: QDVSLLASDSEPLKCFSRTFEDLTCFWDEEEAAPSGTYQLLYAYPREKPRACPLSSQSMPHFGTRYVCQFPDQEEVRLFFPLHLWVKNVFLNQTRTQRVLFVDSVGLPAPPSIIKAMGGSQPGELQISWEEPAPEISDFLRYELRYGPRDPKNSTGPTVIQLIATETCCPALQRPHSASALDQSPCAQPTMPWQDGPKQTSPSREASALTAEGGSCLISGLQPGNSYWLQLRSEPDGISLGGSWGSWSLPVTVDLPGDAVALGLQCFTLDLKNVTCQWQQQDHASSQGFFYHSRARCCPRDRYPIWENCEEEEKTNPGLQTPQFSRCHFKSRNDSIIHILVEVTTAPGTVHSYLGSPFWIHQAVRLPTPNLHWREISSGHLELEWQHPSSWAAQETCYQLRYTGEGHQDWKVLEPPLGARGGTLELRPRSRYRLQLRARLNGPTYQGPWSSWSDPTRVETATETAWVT
Procedure: Since the anti-human Mpl antibody VB22B binds to soluble recombinant Mpl, kinetic analyses of the antigen-antibody reaction between VB22B IgG and human Mpl-IgG Fc fusion protein were carried out as described in Example 1.4. The Sensor Chip CM5 (Biacore) was placed in Biacore 2000 (Biacore), and human Mpl-IgG Fc fusion protein was immobilized onto the chip by amine-coupling methods. Then, 1.25 to 20 μg/mL of VB22B IgG solution was prepared using HBS-EP Buffer (Biacore), and injected over the chip surface for 2 min to reveal the binding region. Then, HBS-EP Buffer was injected over the chip surface for 2 min to reveal the dissociation region. VB22B IgG bound to the human Mpl-IgG Fc fusion protein on the sensor chip was removed by injecting 10 mM NaOH over the sensor chip for 15 sec, and the chip was recovered. HBS-EP Buffer was used as the running buffer, and the flow rate was 20 μL/min. Using the BIAevaluation Version 3.1 (Biacore) software, the reaction rate constant at each concentration was calculated from the sensorgrams.

[2] = biological target: T2, MG10 (Gln213 to Ala231)-GST fusion protein (human, also: fused with GST); test: SPR, Biacore 3000, MG10-GST immobilized on CM5, Bivalent analyte model (constants as for the monovalent antibody), triplicate
T2 construct: As MG1; also called MG10-GST fusion protein; GST fusion protein containing MG10; not shown: glutathione-S-transferase of vector pGEX-4T-3 (Amersham Biosciences)
T2 chain: QPTMPWQDGPKQTSPSREA
Procedure: The Sensor Chip CM5 (Biacore) was placed in Biacore 3000 (Biacore), and MG10-GST fusion protein was immobilized onto the chip by amine-coupling methods. HBS-EP Buffer (Biacore) was used as the running buffer, and the flow rate was 20 μL/min. 5.5 to 175.0 nM of VB22B IgG solution was prepared using HBS-EP Buffer, and injected over each of the chip surfaces for 2 min to obtain the binding region at the respective concentrations. Then, dissociation region for the 2 minutes was measured. VB22B IgG bound to the MG10-GST fusion protein on the sensor chip was removed by injecting 20 mM HCl over the sensor chip for 1 min, and the chip was recovered. Similarly, 4.7 to 150.1 nM of VB22B sc(Fv)2, 5.3 to 168.9 nM of hVB22B q-wz5 sc(Fv)2, and 4.9 to 156.8 nM of hVB22B u2-wz4 sc(Fv)2 were prepared and injected over the chip surfaces onto which MG10-GST fusion protein was immobilized, and the measurement was carried out.
All the antibodies used were bivalent antibodies, and thus the sensorgrams at each concentration were obtained in the presence of both monovalent and bivalent bindings. In this context, the reaction rate constant was determined as that for the monovalent antibody by analysis using the Bivalent analyte model of BIAevaluation ver.3.1 software (Biacore). The above analysis was carried out in triplicates for each antibody. The binding rate constant (ka), dissociation rate constant (kd), and dissociation constant (KD) were determined as those for the monovalent antibody by the procedure described above. The constants are indicated below in Table 1.

[3] = biological target: T3, cynomolgus monkey Mpl expressed on CHO cells (CHO-monkey Mpl) (cynomolgus monkey, UniProt P40238 26-635 (human entry)); test: flow cytometry on CHO cells
T3 construct: pCXND3-monkey Mpl-His in CHO-DG44; also called monkey Mpl-His
T3 chain: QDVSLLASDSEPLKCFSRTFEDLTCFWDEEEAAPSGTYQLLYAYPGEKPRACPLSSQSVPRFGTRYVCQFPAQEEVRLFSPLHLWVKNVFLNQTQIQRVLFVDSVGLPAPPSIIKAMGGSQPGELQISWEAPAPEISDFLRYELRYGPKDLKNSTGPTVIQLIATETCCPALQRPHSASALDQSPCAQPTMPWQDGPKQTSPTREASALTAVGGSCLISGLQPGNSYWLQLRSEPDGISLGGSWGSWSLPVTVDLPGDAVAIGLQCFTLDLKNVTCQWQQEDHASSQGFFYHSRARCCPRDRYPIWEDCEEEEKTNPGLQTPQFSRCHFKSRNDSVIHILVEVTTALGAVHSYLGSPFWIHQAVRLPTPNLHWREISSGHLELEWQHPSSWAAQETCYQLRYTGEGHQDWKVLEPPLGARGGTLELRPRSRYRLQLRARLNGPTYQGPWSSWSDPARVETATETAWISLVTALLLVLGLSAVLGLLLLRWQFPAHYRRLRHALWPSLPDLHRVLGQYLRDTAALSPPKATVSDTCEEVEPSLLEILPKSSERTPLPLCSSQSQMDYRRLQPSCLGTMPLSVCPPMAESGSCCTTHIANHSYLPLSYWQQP

B1: anti-human Mpl antibody VB22B IgG (antibody, V domains shown)
VH: QVQLQQSGPELVKPGASVKISCKASGYAFTNSWMNWVKQRPGKGLEWIGRIYPGDGETIYNGKFRVKATLTADKSSSTAYMDISSLTSEDSAVYFCARGYDDYSFAYWGQGTLVTVSA
VL: DIVMTQAAPSIPVTPGESVSISCRSSKSLLHSNGNTYLYWFLQRPGQSPQLLIYRMSNLASGVPDRFSGSGSGTAFTLRISRVEAEDVGVYYCMQHIEYPFTFGSGTKLEIK
notes: also called murine antibody VB22B
Kd [1]: 1.67 nM | Kd [2]: 11.5 nM | koff [2]: 0.0011 s⁻¹ | kon [2]: 96000 M⁻¹ s⁻¹ | binding result [3]: binds
